Patent publication US20200199241A1 (Chugai, published 2020)
Residue numbers refer to the chain shown, from its start.

B1: IgG1-F1304 (antibody)
heavy: QVQLQESGPGLVKPSETLSLTCAVSGHSISHDHAWSWVRQPPGEGLEWIGFISYSGITNYNPSLQGRVTISRDNSKNTLYLQMNSLRAEDTAVYYCARSLARTTAMDYWGEGTLVTVSSASTKGPSVFPLAPSSKSTSGGTAALGCLVKDYFPEPVTVSWNSGALTSGVHTFPAVLQSSGLYSLSSVVTVPSSSLGTQTYICNVNHKPSNTKVDKKVEPKSCDKTHTCPPCPAPELRGGPKVFLFPPKPKDTLYISREPEVTCVVVDVSHEDPEVKFNWYVDGVEVHNAKTKPREEQYNSTYRVVSVLTVLHQDWLNGKEYKCKVSNKALPAPIEKTISKAKGQPREPQVYTLPPSRDELTKNQVSLTCLVKGFYPSDIAVEWESNGQPENNYKTTPPVLDSDGSFFLYSKLTVDKSRWQQGNVFSCSVMHEALDYHFTKKDLSLSP
light: not shown
notes: EU numbering; copies: 2 + 2
B2: IgG1-F1305 (antibody)
heavy: B1 heavy with E258T, F438V, K440R
light: not shown
notes: EU numbering; copies: 2 + 2
B3: IgG1-F1306 (antibody)
heavy: B1 heavy with E258T, F438V, D442E
light: not shown
notes: EU numbering; copies: 2 + 2
B4: IgG1-F1307 (antibody)
heavy: B1 heavy with E258T, V424A, S426A, D435H, F438V, K440Q, D442S
light: not shown
notes: EU numbering; copies: 2 + 2
B5: IgG1-F1308 (antibody)
heavy: B1 heavy with E258T, V424L, S426L, D435H, F438V, K440Q, D442S
light: not shown
notes: EU numbering; copies: 2 + 2
B6: IgG1-F1309 (antibody)
heavy: B1 heavy with E258T, D435H, F438V, K440A, D442A
light: not shown
notes: EU numbering; copies: 2 + 2
B7: IgG1-F1310 (antibody)
heavy: B1 heavy with E258T, D435H, F438V, K440L, D442L
light: not shown
notes: EU numbering; copies: 2 + 2
B8: IgG1-F1311 (antibody)
heavy: B1 heavy with E258T, V424A, S426A, F438V, K440Q, D442S
light: not shown
notes: EU numbering; copies: 2 + 2
B9: IgG1-F1312 (antibody)
heavy: B1 heavy with E258T, V424L, S426L, F438V, K440Q, D442S
light: not shown
notes: EU numbering; copies: 2 + 2
B10: IgG1-F1313 (antibody)
heavy: B1 heavy with E258T, F438V, K440A, D442A
light: not shown
notes: EU numbering; copies: 2 + 2
B11: IgG1-F1314 (antibody)
heavy: B1 heavy with E258T, F438V, K440L, D442L
light: not shown
notes: EU numbering; copies: 2 + 2
B12: IgG1-F1319 (antibody)
heavy: B1 heavy with R237L, K241S, E258T, L330Y, D435H, F438Y, K440Q, D442S
light: not shown
notes: EU numbering; copies: 2 + 2
B13: IgG1-F1320 (antibody)
heavy: B1 heavy with S256T, E258T, D435H, F438V, K440R
light: not shown
notes: EU numbering; copies: 2 + 2
B14: IgG1-F1321 (antibody)
heavy: B1 heavy with S256T, E258T, D435H, F438V, D442E
light: not shown
notes: EU numbering; copies: 2 + 2
B15: IgG1-F1322 (antibody)
heavy: B1 heavy with S256T, E258T, F438V, K440R
light: not shown
notes: EU numbering; copies: 2 + 2
B16: IgG1-F1323 (antibody)
heavy: B1 heavy with S256T, E258T, F438V, D442E
light: not shown
notes: EU numbering; copies: 2 + 2
B17: IgG1-F1326 (antibody)
heavy: QVQLQESGPGLVKPSETLSLTCAVSGHSISHDHAWSWVRQPPGEGLEWIGFISYSGITNYNPSLQGRVTISRDNSKNTLYLQMNSLRAEDTAVYYCARSLARTTAMDYWGEGTLVTVSSASTKGPSVFPLAPSSKSTSGGTAALGCLVKDYFPEPVTVSWNSGALTSGVHTFPAVLQSSGLYSLSSVVTVPSSSLGTQTYICNVNHKPSNTKVDKKVEPKSCDKTHTCPPCPAPEAAGGPSVFLFPPKPKDVLYISRTPEVTCVVVDVSHEDPEVKFNWYVDGVEVHNAKTKPREEQYNSTYRVVSVLQPLHADWLNGKEYKCKVSNKALPAPIEKTISKAKGQPREPQVYTLPPSRDELTKNQVSLTCLVKGFYPSDIAVEWESNGQPENNYKTTPPVLDSDGSFFLYSKLTVDKSRWQQGNVFSCSVMHEALHYHVTQKSLSLSP
light: not shown
notes: copies: 2 + 2
B18: IgG1-F1327 (antibody)
heavy: B17 heavy with N299A
light: not shown
notes: copies: 2 + 2
B19: IgG1-F1328 (antibody)
heavy: B1 heavy with G238R, E258T, D435H, F438V, K440R, D442E
light: not shown
notes: EU numbering; copies: 2 + 2
B20: IgG1-F1329 (antibody)
heavy: B1 heavy with G238R, S256T, E258T, D435H, F438V, K440R, D442E
light: not shown
notes: EU numbering; copies: 2 + 2
B21: IgG1-F1330 (antibody)
heavy: B1 heavy with G238R, D435H, F438V, K440R, D442E
light: not shown
notes: EU numbering; copies: 2 + 2
B22: IgG1-F1331 (antibody)
heavy: B1 heavy with G238R, S256T, D435H, F438V, K440R, D442E
light: not shown
notes: EU numbering; copies: 2 + 2
B23: IgG1-F1334 (antibody)
heavy: B1 heavy with G238R, E258T, D435H, F438V
light: not shown
notes: EU numbering; copies: 2 + 2
B24: IgG1-F1336 (antibody)
heavy: B1 heavy with G238R, D435H, F438V
light: not shown
notes: EU numbering; copies: 2 + 2
B25: IgG1-F1337 (antibody)
heavy: B1 heavy with D435H, F438V, D442E
light: not shown
notes: EU numbering; copies: 2 + 2
B26: IgG1-F1338 (antibody)
heavy: B1 heavy with F438V, D442E
light: not shown
notes: EU numbering; copies: 2 + 2
B27: IgG1-F1341 (antibody)
heavy: B1 heavy with S256T, E258T, D435H, F438T, D442E
light: not shown
notes: EU numbering; copies: 2 + 2
B28: IgG1-F1342 (antibody)
heavy: B1 heavy with D435H, F438T, D442E
light: not shown
notes: EU numbering; copies: 2 + 2
B29: IgG1-F1343 (antibody)
heavy: B1 heavy with S256T, D435H, F438T, D442E
light: not shown
notes: EU numbering; copies: 2 + 2
B30: IgG1-F1344 (antibody)
heavy: B1 heavy with E258T, D435H, F438T, D442E
light: not shown
notes: EU numbering; copies: 2 + 2
B31: IgG1-F1345 (antibody)
heavy: B1 heavy with G238R, E258T, D435H, F438V, D442E
light: not shown
notes: EU numbering; copies: 2 + 2
B32: IgG1-F1346 (antibody)
heavy: B1 heavy with G238R, S256T, E258T, D435H, F438V, D442E
light: not shown
notes: EU numbering; copies: 2 + 2
B33: IgG1-F1347 (antibody)
heavy: B1 heavy with G238R, D435H, F438V, D442E
light: not shown
notes: EU numbering; copies: 2 + 2
B34: IgG1-F1348 (antibody)
heavy: B1 heavy with G238R, S256T, D435H, F438V, D442E
light: not shown
notes: EU numbering; copies: 2 + 2
B35: IgG1-F1349 (antibody)
heavy: B1 heavy with E258T, D435H, F438T, K440R, D442E
light: not shown
notes: EU numbering; copies: 2 + 2
B36: IgG1-F1350 (antibody)
heavy: B1 heavy with E258T, D435H, D442E
light: not shown
notes: EU numbering; copies: 2 + 2
B37: IgG1-F1351 (antibody)
heavy: B1 heavy with E258T, D435H, K440R, D442E
light: not shown
notes: EU numbering; copies: 2 + 2
B38: IgG1-F1352 (antibody)
heavy: B1 heavy with E258T, F438T, D442E
light: not shown
notes: EU numbering; copies: 2 + 2
B39: IgG1-F1353 (antibody)
heavy: B1 heavy with E258T, F438T, K440R, D442E
light: not shown
notes: EU numbering; copies: 2 + 2
B40: IgG1-F1354 (antibody)
heavy: B1 heavy with E258T, D442E
light: not shown
notes: EU numbering; copies: 2 + 2
B41: IgG1-F1355 (antibody)
heavy: B1 heavy with E258T, K440R, D442E
light: not shown
notes: EU numbering; copies: 2 + 2
B42: IgG1-F1357 (antibody)
heavy: B1 heavy with S256T, E258T, D435H, F438T, K440R, D442E
light: not shown
notes: EU numbering; copies: 2 + 2
B43: IgG1-F1358 (antibody)
heavy: B1 heavy with S256T, E258T, D435H, D442E
light: not shown
notes: EU numbering; copies: 2 + 2
B44: IgG1-F1359 (antibody)
heavy: B1 heavy with S256T, E258T, D435H, K440R, D442E
light: not shown
notes: EU numbering; copies: 2 + 2
B45: IgG1-F1360 (antibody)
heavy: B1 heavy with S256T, E258T, F438T, D442E
light: not shown
notes: EU numbering; copies: 2 + 2
B46: IgG1-F1361 (antibody)
heavy: B1 heavy with S256T, E258T, F438T, K440R, D442E
light: not shown
notes: EU numbering; copies: 2 + 2
B47: IgG1-F1362 (antibody)
heavy: B1 heavy with S256T, E258T, D442E
light: not shown
notes: EU numbering; copies: 2 + 2
B48: IgG1-F1363 (antibody)
heavy: B1 heavy with S256T, E258T, K440R, D442E
light: not shown
notes: EU numbering; copies: 2 + 2
B49: IgG1-F1365 (antibody)
heavy: B1 heavy with F438T, D442E
light: not shown
notes: EU numbering; copies: 2 + 2
B50: IgG1-F1366 (antibody)
heavy: B1 heavy with D442E
light: not shown
notes: EU numbering; copies: 2 + 2
B51: IgG1-F1367 (antibody)
heavy: B1 heavy with S256T, D435H, F438T, K440R, D442E
light: not shown
notes: EU numbering; copies: 2 + 2
B52: IgG1-F1368 (antibody)
heavy: B1 heavy with S256T, D435H, D442E
light: not shown
notes: EU numbering; copies: 2 + 2

Each binder was assayed against T1, soluble human FcRn complexed with β2-microglobulin (human, UniProt P61769 21-119, limits assumed) (assay: Biacore SPR, pH 7.0;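 further: test antibodies captured on a Protein L chip with human FcRn flowed over as analyte, KD obtained as the ratio of dissociation to association rate constants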).
T1 construct: also called hFcRn
T1 sequence (chain, as listed by the source limits assumed, chain 1 of 2): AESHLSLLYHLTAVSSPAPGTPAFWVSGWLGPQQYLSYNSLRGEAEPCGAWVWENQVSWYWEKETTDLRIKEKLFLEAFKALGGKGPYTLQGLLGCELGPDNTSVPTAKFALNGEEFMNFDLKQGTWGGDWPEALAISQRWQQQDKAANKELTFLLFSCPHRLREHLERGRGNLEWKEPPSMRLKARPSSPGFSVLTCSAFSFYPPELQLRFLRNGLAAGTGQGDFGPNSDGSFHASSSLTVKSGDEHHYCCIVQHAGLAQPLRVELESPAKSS
T1 sequence (P61769 21-119 limits assumed, chain 2 of 2): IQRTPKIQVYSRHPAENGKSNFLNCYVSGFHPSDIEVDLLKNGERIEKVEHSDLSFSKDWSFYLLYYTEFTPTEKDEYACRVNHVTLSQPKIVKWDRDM

| Binder | Kd [µM] |
| --- | --- |
| B1 | 0.124 |
| B2 | 0.205 |
| B3 | 0.192 |
| B4 | 0.144 |
| B5 | 0.206 |
| B6 | 0.126 |
| B7 | 0.228 |
| B8 | 0.369 |
| B9 | 0.179 |
| B10 | 0.177 |
| B11 | 0.227 |
| B12 | 0.267 |
| B13 | 0.122 |
| B14 | 0.103 |
| B15 | 0.16 |
| B16 | 0.149 |
| B17 | 0.0109 |
| B18 | 0.0141 |
| B19 | 0.152 |
| B20 | 0.129 |
| B21 | 0.103 |
| B22 | 0.0775 |
| B23 | 0.104 |
| B24 | 0.0718 |
| B25 | 0.0741 |
| B26 | 0.104 |

| Binder | Kd [µM] |
| --- | --- |
| B27 | 0.322 |
| B28 | 0.251 |
| B29 | 0.201 |
| B30 | 0.396 |
| B31 | 0.105 |
| B32 | 0.0859 |
| B33 | 0.0714 |
| B34 | 0.0552 |
| B35 | 0.336 |
| B36 | 0.118 |
| B37 | 0.162 |
| B38 | 0.393 |
| B39 | 0.433 |
| B40 | 0.229 |
| B41 | 0.247 |
| B42 | 0.281 |
| B43 | 0.0907 |
| B44 | 0.128 |
| B45 | 0.312 |
| B46 | 0.352 |
| B47 | 0.141 |
| B48 | 0.19 |
| B49 | 0.314 |
| B50 | 0.117 |
| B51 | 0.179 |
| B52 | 0.0549 |
